The term IC50 denotes the concentration at which inhibition is half-maximal.

The experiment has as its target HLA-DR1 (human). Nature of the experiment: competitive binding assay; DR1 format not described.

B1: AChRα peptide 204-217 (peptide, UniProt P02708 224-237, looked up)
peptide: HFVMQRLPLYFIVN
Turning to B1, the IC50 was 1.75 µM.

B2: AChRα peptide 36-49 (peptide, UniProt P02708 56-69, looked up)
peptide: QLIQLINVDEVNQI
notes: range 36-49; also called AChRα 36-49
On to B2, for which the IC50 was 11.2 µM.

B3: AChRα peptide 400-413 (peptide, UniProt P02708 420-433, looked up)
peptide: KYVAMVMDHILLGV
B3 registered an IC50 of 11.7 µM.

Values taken from patent US20050048066A1 (published 2005).
